Source: patent US20210198377A1 (XDCEXPLORER SHANGHAI, published 2021)
Positions count from the first letter of the chain named.

T1: mouse TPBG (full length, on cells) (mouse, UniProt Q9Z0L0 32-426)
T1 construct: whole, on cells; On transfected CHO-K1 cells; also called mTPBG; CHO-K1-mTPBG
T1 sequence (looked up): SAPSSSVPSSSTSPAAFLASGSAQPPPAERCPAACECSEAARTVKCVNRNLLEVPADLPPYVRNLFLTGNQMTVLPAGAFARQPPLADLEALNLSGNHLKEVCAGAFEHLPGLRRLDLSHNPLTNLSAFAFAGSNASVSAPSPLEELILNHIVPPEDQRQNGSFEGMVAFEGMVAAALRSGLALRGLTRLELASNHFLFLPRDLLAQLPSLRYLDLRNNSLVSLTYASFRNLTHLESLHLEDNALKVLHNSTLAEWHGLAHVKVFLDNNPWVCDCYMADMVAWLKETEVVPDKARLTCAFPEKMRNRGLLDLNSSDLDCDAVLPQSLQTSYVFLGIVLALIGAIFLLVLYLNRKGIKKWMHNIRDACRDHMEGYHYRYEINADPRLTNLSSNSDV

T2: biotinylated recombinant TPBG protein (Homo sapiens (Human), UniProt Q13641 32-355, Biotinylated; the number and positions of the biotin labels are not stated and the letters do not carry them.)
T2 sequence: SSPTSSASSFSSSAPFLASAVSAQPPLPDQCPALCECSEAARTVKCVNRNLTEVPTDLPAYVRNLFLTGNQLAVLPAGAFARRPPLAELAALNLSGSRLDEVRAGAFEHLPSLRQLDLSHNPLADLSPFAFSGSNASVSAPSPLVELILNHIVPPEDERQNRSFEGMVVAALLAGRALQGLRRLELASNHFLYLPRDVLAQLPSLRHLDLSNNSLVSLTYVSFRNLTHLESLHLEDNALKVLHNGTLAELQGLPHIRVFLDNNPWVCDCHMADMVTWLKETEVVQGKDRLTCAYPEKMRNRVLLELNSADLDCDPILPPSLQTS

B1: 5G4H10G5 (antibody, V domains shown)
VH: EVQLVESGGDLVQPGGSLKLFCAASGFTFSTYGLSWVRQTPDKRLELVATITNNDGSAYYPDSVKGRFTISRDKAKNTLFLQMTSLKSEDTAMYYCARETGFGSSYLFDYWGQGTLVTVSA
VL: NIVMTQTPKFLLVSAGDRVTITCKASQSVSNDVAWYQQKPGQSPKLLIYFATNRYTGVPNRFTGSGYGTEFTFTISSVQAEDLAVYFCQQDYSSPTFGGGTKLEIK
notes: Mouse hybridoma antibody purified from culture supernatant; also called TPBG antibody; lead antibody
B2: 37H9C5G2 (antibody, V domains shown)
VH: QVQLQQSDAELVRPGASVKMSCKVSGYTFTDHTIHWMKQRPEQGLEWIGYIYPRDGSGTYNEKFKGKATLTADKSSSTAYMQLNSLTSEDSAVYFCARDGSSHYWYFDVWGTGTTVTVSS
VL: DIQMTQSPASLSASVGETVTITCRASEIIYNYLAWYQQKQGKSPQLLVYNAKTLAEGVPSRFSGSYSGTQFSLNINSLQSEDFGIYYCQHHHDTPLTFGAGTKLDLK
notes: as for B1
B3: 39A11G5F2 (antibody, V domains shown)
VH: QVQLQQSGAELMKPGASMRLSCKATGYTFTGYWLEWIKRRPGHGLEWIGEILPGRGSTNYNEKFKGKATFTAETSSNTAYMQLTSLTTEDSAIYYCARGGRDFDNWGQGTTLTVSS
VL: DIQMTQSTSSLSASLGDRVTISCSASQGINNHLNWYQQKPDGTVKLLIYYTSSLHSGVPSRFSGSGSGTDYSLTISNLEPEDIAIYYCQQFSKLPYTFGGGTKVEMK
notes: as for B1
B4: 52C9E9F6 (antibody, V domains shown)
VH: QVQLQQSGAELMKPGASVKLSCKATGYTFTGYWIEWIKQRPGHGLEWIGEILPGRGSTDYNEKFKGKATFTADTSSNTAYMQLSSLTTEDSAIYYCTRGRLDFTYWGQGTLVTVSA
VL: B3 VL with S7T, N30R, H32Y, I85T, F91Y, L94V, Y96W, V104L, M106I
notes: as for B1
B5: 28D4E6A9 (antibody, V domains shown)
VH: DVQLVESGGGLVRPGGSLKLSCAASGFTFSNYVMSWARQSPEKRLEWVAEISTGGSHTYYSDTVTGRFTISRDNAKKALYLEMSSLRSEDTAIYYCIMFYYGSSYSMDYWGQGTSVTVSS
VL: DIQMTQSTSSLSASLGDRITISCRASQDIRNYLNWYQQKPDGTVKLLIYHTSRLHSGVPSRFSGSGSGTDYSLTISNLEQEDIATYFCQQGDTLPLTFGAGTRLELK
notes: as for B1
B6: 36A10D8B12 (antibody, V domains shown)
VH: DVQLQESGPGMVKPSQSLSLTCTVTGYSITSGYDWHWIRHFPGNKLEWMGYISYSGNTNYNPSLKSRISITHNTSKNHFFLRLNSVTTEDTATYYCARGYGNWDAMDYWGQGTSVTVSS
VL: DIVMTQSQKFMSTSVGDRVSVTCKASQIVDTNVAWYQQKPGQSPKALISSASYRYSGVPDRFTGSGSGTDFTLTISNVQSEDLAEYFCQQYNSYPLTFGAGTKLELT
notes: as for B1
B7: 99E12C7H1 (antibody, V domains shown)
VH: QIQLVQSGPELKKPGETVKISCKPSGYTFTAYGLSWVKQAPGQGFQWMGWINTYSGVPTYTDDFKGRFAFSLETSAGTASLQITNLKNEDTATYFCARSSIPPFEYWGPGTTLTVSS
VL: SFVMTQSPKFLLVSVGDRVTITCKASQSVSNDVAWYQQKPGQPPRVLIYFASNRYTGVPDRFTGSGYGTDFTFTISTVQAEDLALYFCQQDYSSPWTFGGGTKLEIK
notes: as for B1
B8: 103E2E9C2 (antibody, V domains shown)
VH: EVQLQQSGPVLVKPGASVKMSCEASGYSFIDYYMSWVKQSRGRSLEWIGVFNPYSGEIIYNQKFKGKATLTVDKSSSTAYMELSSLTSEDSGVYSCARLRISYYAIDYWGQGTSVAVSS
VL: ENVLTQSPAIMSASPGEKVTMTCRATSSVSSGHFHWYQQKSGASPKVWIYSTSNLASGVPARFSGSGSGTSFSLTISSVEAEDVATYFCQQYSGYPLTFGGGTKLEIK
notes: as for B1
B9: 106D5G3D10 (antibody, V domains shown)
VH: EVQLVESGGGLVKPGGSLKLSCAASGFTFSDYGMHWVRQAPEKGLEWVGYISSGTYVVYYADTVKGRFTISRDNAKNTLFLQMTSLRSEDTAIYYCSTYGSNPFDYWGQGTTLTVSS
VL: QLVLTQSPAIMSASPGEKVTITCSATSSVSSMHWFQQKPVTSPKLWIYSTSNLASGVPTRFSGSGSGTSYSLTISRMEAEDAATYYCQQRSGYPPIFTFGSGTKLEIK
notes: as for B1
B10: 12B12C7C3 (antibody, V domains shown)
VH: DVQLVESGGGLVQPGGSRKLSCAASGFTFSNFGMHWVRQAPEKGLEWVAYISSGSTSFYYADTVKGRFTISRDNPKNTLFLQMTSLRSEDTAMYYCSRTNSLLRGFFDAWGAGTTVTVSS
VL: DIVLTQSPASLAVSLGQRATISCRASQSVSSSSYTYLHWYQQKPGQPPKLLIKSASNLESGVPARFSGTGSGTDFTLNIHPVEEEDTATYYCQHSWEIPLTFGAGTKLELK
notes: as for B1

Assays:
[1] = biological target: T1, mouse TPBG (full length, on cells); assay: FACS on CHO-K1-mTPBG cells
From the text: The stable cell lines CHO-k1-hTPBG, CHO-k1-cTPBG, CHO-k1-mTPBG (i.e. the CHO-k1-hTPBG 3A2F1, CHO-k1-cTPBG 3F13G4 and CHO-k1-mTPBG 3A3 shown in table 7) and CHO-K1 cells were expanded to a 90% of confluency in T-75 cell culture flasks, the culture medium were removed, and cells were then rinsed twice with HBSS buffer (Hanks Balanced Salt Solution, purchased from Invitrogen) and lysed with enzyme-free cell dissociation buffer (Versene solution purchased from Life technology) and harvested. Harvested cells were rinsed with HBSS buffer twice and counted before diluting with HBSS buffer to 2×10⁶ cells /mL, and 10% goat serum blocking buffer was then added, wherein the percentage is the mass percentage. Cells were incubated on ice for 30 min, and then washed twice with HBSS buffer by centrifugation. The harvested cells were resuspended with FACS buffer (HBSS+1% BSA, wherein the percentage is mass percentage) to a concentration of 2×10⁶ cells /mL. 100 μL per well of the cells was aliquoted to 96-well FACS reaction plates, and 100 μL per well of test sample—the purified TPBG antibody obtaining from Embodiment 2 was added before incubating on ice for 2 h. The plate was washed with the FACS buffer twice by centrifugation, and 100 μL per well of fluorescence (Alexa 488) labeled secondary antibody (purchased from Invitrogen) was then added and incubated on ice for 1 h. The plate was washed with the FACS buffer for three times by centrifugation, follow by resuspending in 100 μL of fixation buffer (4% (v/v) paraformaldehyde). Cells were washed with FACS buffer twice after 10 min, follow by resuspending with 100 μL of FACS buffer. The results were measured and analyzed by FACS (FACS Calibur, purchased from BD). Data analysis was performed by software (CellQuest) to obtain mean fluorescence intensity (MFI) of the cells, follow by calculating EC50 value by software (GraphPad Prism) analysis and data fitting. The analysis results were shown in Table 8 and FIGS. 7-10, and data in FIGS. 7-10 show the mean fluorescence intensity (MFI) of cells.

[2] = biological target: T2, biotinylated recombinant TPBG protein; assay: competitive ELISA; row antibody 5 ug/mL; competitor: coated 28D4E6A9
Protocol: The purified antibodies to be tested were diluted to 1 μg/mL using PBS, and coated with high-adsorption of 96-well microplates at […]. After overnight coating at 4[…], 250 μL of blocking buffer (PBS containing 0.01% (v/v) Tween20 and 1% (w/w) BSA) was added to block coating at room temperature for 1 h, and 0.05 μg/mL of biotinylated recombinant TPBG protein was added to each well. Meanwhile, 5 μg/mL final concentration of competitive antibodies, i.e. the purified antibodies obtained from Embodiment 2 with the clone number of 12B12C7C3, 5G4H10G5, 37H9C5G2, 39A11G5F2, 52C9E9F6, 28D4E6A9, 36A10D8B12, 99E12C7H1, 103E2E9C2 and 106D5G3D10 were added and incubated at 25-37° C. for 1-2 h. The plates were washed three times with plate-washing buffer (PBS containing 0.01% (v/v) Tween20) and HRP (horseradish peroxidase)-labeled streptavidin (purchased from Sigma) was added. After incubating at 37° C. for 0.5 h, the plates were washed three times with plate-washing buffer (PBS containing 0.01% (v/v) Tween20), and 100 μL of TMB substrate was added to each well and the plates were further incubated at room temperature for 30 min prior to adding 100 μL of stop buffer (1.0N HCl) to each well. A₄₅₀ₙₘ values were read using an ELISA microplate reader (SpectraMax 384plus purchased from Molecular Device) and results were shown in FIG. 6. The higher the values of the competition rate, the closer the antigen surface of the two antibodies are.

Binder	EC50 [1] [nM]	competition rate [2] [%]	binding result [1]
B1	9.07	-1	
B2	11.1	58	
B3	1.88	0	
B4		17	no binding
B5		96	no binding
B6		86	no binding
B7		38	no binding
B8		95	no binding
B9		1	no binding
B10		74	no binding
